From publication PMC12391199

Assays:
[1] = biological target: portal protein gp4 of bacteriophage Epsilon15 (portal complex) (bacteriophage Epsilon15); assay: cryo-EM structure; asymmetric single-particle reconstruction of whole ϵ15 virions (iodixanol-purified, in PBS, graphene oxide-coated grids, Titan Krios 300 kV, RELION 2.0), with focused refinement of the portal at ~7 Å
[2] = biological target: tail hub of bacteriophage Epsilon15 (bacteriophage Epsilon15); assay: as above

Substance	stoichiometry N [1]	stoichiometry N [2]
portal protein gp4 of bacteriophage Epsilon15 (portal complex) (natural protein)	12	
tail hub of bacteriophage Epsilon15 (complex)		6
